From PMC9485244

Key:
[1] = target: TatB^mNeon (E. coli TatB C-terminally tagged with mNeonGreen) (E. coli) (UniProt P69425); test: single-molecule photobleaching step counting; individual CellMask-positive IMVs adsorbed on plasma-cleaned coverslips, narrow-field epifluorescence (488 nm), 50 mM Tris-HCl, 150 mM NaCl, pH 7.5; step histograms (manual and PDD) fit to oligomer models (monomer to octamer) with Poisson distribution of complexes in IMVs and binomial fluorescence detection efficiency; copies per Tat receptor complex
[2] = target: TatC^mNeon (E. coli TatC C-terminally tagged with mNeonGreen) (E. coli) (UniProt P69423); test: as above

stoichiometry N (copies per receptor complex) [1] | stoichiometry N (copies per receptor complex) [2] | Substance
4 |  | TatB^mNeon (E. coli TatB C-terminally tagged with mNeonGreen) (from UniProt P69425 1-171) (natural protein)
 | 4 | TatC^mNeon (E. coli TatC C-terminally tagged with mNeonGreen) (from UniProt P69423 1-258) (natural protein)
